Results from publication PMC2879525.

Biological target: rLdACT (Leishmania actin) (Leishmania donovani, UniProt Q86M27 1-376)
Test: EMSA

B1: 30 bp DNA probe (dsDNA)
DNA 1: GCGGCCGCATGGCTGACAACGAGCAGAGCT
DNA 2: AGCTCTGCTCGTTGTCAGCCATGCGGCCGC
- binding result: binds
